Measured values as given in patent US20230002478A1 (TWIST BIOSCIENCE, published 2023).
Where two headings read alike, the source gives them in different places.

What was measured:
[1] = target: T1, S1 domain of SARS-CoV S protein (SARS-CoV, UniProt P59594 14-667); test: cross-binding assay on the S1 domain of SARS-CoV S protein
T1 construct: domain: S1

SARS-CoV-2 S1 [2] = target: T2, SARS-CoV-2 S1 (SARS-CoV-2, UniProt P0DTC2 16-685); test: SPR
T2 construct: range 16-685

SARS-CoV-2 S1 [3] = target: T2, SARS-CoV-2 S1; test: SPR; remark: listed apart in the source
[4] = target: T1, S1 domain of SARS-CoV S protein; test: SPR

| Binder | Kd (SARS-CoV-2 S1 [2]) | Kd (SARS-CoV-2 S1 [3]) | binding result [4] | also measured |
| --- | --- | --- | --- | --- |
| 2-5 (antibody, V domains shown) VH: EVQLLESGGGLVQPGGSLRLSCAASGFTFSDFAMAWVRQAPGKGLEWVSAISGSGDITYYADSVKGRFTISRDNSKNTLYLQMNSLRAEDTAVYYCAREADGLHSPWHFDLWGQGTLVTVSS VL: DIQMTQSPSSLSASVGDRVTITCRASQSIHTYLNWYQQKPGKAPKLLIYAASALASGVPSRFSGSGSGTDFTLTISSLQPEDFATYYCQQSYSAPPYTFGQGTKVEIK |  |  |  | binding result [1]: binds |
| 5-1 (Fc fusion) EVQLVESGGGLVQPGGSLRLSCAASGGTFSSIGMGWFRQAPGKEREFVAAISWDGGATAYADSVKGRFTISADNSKNTAYLQMNSLKPEDTAVYYCAKEDVGKPFDWGQGTLVTVSS | 6.6 nM |  |  |  |
| 2-2 (antibody, V domains shown) VH: EVQLLESGGGLVQPGGSLRLSCAASGFTFSRHAMNWVRQAPGKGLEWVSGISGSGDETYYADSVKGRFTISRDNSKNTLYLQMNSLRAEDTAVYYCARDLPASYYDSSGYYWHNGMDVWGQGTLVTVSS VL: DIQMTQSPSSLSASVGDRVTITCRASQTINTYLNWYQQKPGKAPKLLIYSASTLQSGVPSRFSGSGSGTDFTLTISSLQPEDFATYYCQQSYSTFTFGQGTKVEIK | 21 nM |  |  |  |
| 6-63 (Fc fusion) EVQLVESGGGLVQPGGSLRLSCAASGQTFNMGWFRQAPGKEREFVAAIGSGGSTSYADSVKGRFTISADNSKNTAYLQMNSLKPEDTAVYYCWRLGNDYFDYWGQGTLVTVSS | 46 nM | 65 nM | no binding |  |
| 6-3 (Fc fusion) EVQLVESGGGLVQPGGSLRLSCAASGFTFSPSWMGWFRQAPGKEREFVATINEYGGRNYADSVKGRFTISADNSKNTAYLQMNSLKPEDTAVYYCARVDRDFDYWGQGTLVTVSS | 32 nM | 11 nM | no binding |  |
| 6-42 (Fc fusion) EVQLVESGGGLVQPGGSLRLSCAASGDTYGSYWMGWFRQAPGKEREFVAVITSGGSTNYADSVKGRFTISADNSKNTAYLQMNSLKPEDTAVYYCTHVQNSYYYAMDVWGQGTLVTVSS |  |  |  | binding result (SARS-CoV-2 S1 [2]): binds |
